Test results from doi:10.1101/2020.02.12.946020.

Molecular target: hMutLγ (MLH1-MLH3) (human, UniProt P40692;Q9UHC1 1-756;1-1453)
Assay: EMSA

hMutLγ (MLH1-MLH3), sequence (P40692 whole entry, chain 1 of 2): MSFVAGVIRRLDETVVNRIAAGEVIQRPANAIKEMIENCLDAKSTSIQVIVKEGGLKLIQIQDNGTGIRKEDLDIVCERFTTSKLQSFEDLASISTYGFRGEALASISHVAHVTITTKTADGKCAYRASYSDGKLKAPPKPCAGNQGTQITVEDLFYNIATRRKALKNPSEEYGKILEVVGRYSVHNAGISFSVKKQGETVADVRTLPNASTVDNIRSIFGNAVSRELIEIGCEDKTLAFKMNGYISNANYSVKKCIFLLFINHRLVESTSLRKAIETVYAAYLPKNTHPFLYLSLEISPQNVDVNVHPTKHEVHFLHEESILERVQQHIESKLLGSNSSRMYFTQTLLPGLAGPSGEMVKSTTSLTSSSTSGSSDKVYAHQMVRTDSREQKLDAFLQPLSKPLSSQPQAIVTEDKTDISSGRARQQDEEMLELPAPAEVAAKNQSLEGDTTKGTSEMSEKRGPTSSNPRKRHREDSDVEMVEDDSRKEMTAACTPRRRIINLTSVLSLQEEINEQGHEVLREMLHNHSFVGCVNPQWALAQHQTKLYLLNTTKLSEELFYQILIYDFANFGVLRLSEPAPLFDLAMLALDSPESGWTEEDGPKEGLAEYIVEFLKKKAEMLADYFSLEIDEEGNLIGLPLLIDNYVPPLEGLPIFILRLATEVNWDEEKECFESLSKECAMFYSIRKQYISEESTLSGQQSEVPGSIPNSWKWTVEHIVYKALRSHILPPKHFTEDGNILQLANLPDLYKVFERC
hMutLγ (MLH1-MLH3), sequence (Q9UHC1 whole entry, chain 2 of 2): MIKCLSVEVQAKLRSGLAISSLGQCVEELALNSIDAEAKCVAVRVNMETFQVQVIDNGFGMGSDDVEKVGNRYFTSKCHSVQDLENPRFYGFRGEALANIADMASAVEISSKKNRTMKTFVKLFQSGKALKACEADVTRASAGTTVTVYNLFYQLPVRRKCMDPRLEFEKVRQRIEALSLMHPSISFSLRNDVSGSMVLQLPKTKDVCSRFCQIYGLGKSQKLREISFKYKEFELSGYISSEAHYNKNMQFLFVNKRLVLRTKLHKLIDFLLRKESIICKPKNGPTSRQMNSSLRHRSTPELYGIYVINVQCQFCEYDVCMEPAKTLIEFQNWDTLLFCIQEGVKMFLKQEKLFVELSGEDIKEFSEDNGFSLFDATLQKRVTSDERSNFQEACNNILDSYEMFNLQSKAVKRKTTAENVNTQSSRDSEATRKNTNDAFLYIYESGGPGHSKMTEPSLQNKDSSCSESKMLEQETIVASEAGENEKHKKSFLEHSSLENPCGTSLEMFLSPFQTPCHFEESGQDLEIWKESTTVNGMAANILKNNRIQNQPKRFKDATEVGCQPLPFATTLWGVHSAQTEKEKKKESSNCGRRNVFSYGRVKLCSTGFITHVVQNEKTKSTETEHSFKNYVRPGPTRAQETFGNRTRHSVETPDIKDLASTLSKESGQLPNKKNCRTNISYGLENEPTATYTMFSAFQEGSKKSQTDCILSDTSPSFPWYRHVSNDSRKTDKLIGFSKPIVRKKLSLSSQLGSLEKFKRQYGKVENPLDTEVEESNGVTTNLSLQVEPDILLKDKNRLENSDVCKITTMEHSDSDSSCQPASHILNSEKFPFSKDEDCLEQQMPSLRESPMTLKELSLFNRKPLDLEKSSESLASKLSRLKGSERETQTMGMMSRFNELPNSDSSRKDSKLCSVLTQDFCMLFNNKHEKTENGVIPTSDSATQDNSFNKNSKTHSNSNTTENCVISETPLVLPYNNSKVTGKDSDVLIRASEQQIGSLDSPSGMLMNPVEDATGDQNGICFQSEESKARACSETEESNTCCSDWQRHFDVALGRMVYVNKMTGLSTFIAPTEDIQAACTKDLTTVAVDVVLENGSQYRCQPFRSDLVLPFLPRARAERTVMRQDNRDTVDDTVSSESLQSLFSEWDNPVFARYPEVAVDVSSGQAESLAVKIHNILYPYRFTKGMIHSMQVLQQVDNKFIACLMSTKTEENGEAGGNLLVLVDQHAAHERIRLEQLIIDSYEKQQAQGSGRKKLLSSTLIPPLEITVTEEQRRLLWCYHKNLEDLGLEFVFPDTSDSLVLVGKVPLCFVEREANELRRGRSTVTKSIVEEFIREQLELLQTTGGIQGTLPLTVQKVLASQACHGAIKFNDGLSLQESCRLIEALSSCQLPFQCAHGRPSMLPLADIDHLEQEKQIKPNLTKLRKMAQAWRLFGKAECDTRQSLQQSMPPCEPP

Binder: TTTTTTTTTTTTTTTTTTTTTTTTTTTTTTTTTTTTTTTT (ssDNA) [40 nt poly-dT ssDNA (dT40)]
- binding result: binds
